US20250262210A1 (TRUSTEES OF COLUMBIA UNIVERSITY IN THE CITY OF NEW YORK, published 2025)

How the values were obtained:
Test in all cases: IP/MS, LZTR1 R810W-FLAG, U87
[1] = target: URB1 (human, UniProt O60287 1-2271)
In short: (§1)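 Gel slices were reduced with 5 mM DTT, alkylated with 11 mM IAA and digested overnight at 37° C. with trypsin. Peptides were analysed on an Orbitrap Fusion Tribrid by LC-MS/MS.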

[2] = target: T1, MOCOS (human, UniProt Q96EN8 1-888)
T1 sequence (looked up): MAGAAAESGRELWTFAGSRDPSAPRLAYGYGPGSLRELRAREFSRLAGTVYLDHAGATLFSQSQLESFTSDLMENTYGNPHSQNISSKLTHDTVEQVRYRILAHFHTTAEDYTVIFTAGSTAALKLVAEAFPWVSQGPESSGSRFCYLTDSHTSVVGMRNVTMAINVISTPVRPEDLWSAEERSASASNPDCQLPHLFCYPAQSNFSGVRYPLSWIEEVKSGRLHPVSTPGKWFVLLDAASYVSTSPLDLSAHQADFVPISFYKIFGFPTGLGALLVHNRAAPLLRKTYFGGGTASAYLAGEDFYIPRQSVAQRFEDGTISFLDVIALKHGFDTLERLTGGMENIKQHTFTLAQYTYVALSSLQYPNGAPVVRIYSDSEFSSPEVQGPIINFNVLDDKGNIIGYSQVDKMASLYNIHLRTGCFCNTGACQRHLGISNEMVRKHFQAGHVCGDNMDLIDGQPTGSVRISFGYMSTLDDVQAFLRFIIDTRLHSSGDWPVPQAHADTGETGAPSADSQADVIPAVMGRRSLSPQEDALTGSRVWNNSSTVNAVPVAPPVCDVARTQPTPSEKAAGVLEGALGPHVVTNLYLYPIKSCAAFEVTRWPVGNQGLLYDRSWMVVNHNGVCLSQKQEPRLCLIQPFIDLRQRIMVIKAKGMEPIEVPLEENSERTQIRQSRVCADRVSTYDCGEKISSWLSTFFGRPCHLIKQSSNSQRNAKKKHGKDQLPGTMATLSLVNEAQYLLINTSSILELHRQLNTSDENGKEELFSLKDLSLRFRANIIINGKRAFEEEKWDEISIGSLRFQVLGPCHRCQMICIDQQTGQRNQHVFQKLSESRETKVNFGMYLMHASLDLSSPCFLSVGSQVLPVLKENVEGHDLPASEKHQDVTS
In short: as §1

[3] = target: T2, CC2D1A (human, UniProt Q6P1N0 1-951, limits assumed)
T2 sequence (looked up): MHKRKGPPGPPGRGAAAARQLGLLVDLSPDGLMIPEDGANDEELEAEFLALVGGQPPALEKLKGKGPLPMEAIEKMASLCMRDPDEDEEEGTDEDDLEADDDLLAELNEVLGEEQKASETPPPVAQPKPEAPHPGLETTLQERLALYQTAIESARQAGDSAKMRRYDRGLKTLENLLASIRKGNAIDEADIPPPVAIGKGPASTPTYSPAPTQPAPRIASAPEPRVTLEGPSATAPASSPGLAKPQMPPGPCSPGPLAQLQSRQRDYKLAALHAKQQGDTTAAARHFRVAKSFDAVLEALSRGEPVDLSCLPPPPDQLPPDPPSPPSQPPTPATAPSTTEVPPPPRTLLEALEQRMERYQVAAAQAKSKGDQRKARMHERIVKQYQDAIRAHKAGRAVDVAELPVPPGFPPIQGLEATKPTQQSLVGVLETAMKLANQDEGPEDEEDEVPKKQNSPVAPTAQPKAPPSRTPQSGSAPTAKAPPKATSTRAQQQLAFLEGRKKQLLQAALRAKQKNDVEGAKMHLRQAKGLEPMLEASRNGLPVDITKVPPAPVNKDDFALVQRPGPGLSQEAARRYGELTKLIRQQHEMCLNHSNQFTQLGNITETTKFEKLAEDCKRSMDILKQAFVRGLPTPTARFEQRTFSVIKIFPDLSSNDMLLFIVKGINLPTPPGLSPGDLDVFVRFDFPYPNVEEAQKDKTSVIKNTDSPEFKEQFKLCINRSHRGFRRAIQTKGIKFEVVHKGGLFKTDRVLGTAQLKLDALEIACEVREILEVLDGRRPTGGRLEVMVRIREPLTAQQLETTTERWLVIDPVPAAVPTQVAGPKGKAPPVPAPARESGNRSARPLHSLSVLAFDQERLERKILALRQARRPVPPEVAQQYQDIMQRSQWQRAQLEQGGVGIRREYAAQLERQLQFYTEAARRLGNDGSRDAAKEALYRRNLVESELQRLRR
In short: as §1

Measured: binding result

Sequence of URB1 (O60287 whole entry, the tested form may be a part): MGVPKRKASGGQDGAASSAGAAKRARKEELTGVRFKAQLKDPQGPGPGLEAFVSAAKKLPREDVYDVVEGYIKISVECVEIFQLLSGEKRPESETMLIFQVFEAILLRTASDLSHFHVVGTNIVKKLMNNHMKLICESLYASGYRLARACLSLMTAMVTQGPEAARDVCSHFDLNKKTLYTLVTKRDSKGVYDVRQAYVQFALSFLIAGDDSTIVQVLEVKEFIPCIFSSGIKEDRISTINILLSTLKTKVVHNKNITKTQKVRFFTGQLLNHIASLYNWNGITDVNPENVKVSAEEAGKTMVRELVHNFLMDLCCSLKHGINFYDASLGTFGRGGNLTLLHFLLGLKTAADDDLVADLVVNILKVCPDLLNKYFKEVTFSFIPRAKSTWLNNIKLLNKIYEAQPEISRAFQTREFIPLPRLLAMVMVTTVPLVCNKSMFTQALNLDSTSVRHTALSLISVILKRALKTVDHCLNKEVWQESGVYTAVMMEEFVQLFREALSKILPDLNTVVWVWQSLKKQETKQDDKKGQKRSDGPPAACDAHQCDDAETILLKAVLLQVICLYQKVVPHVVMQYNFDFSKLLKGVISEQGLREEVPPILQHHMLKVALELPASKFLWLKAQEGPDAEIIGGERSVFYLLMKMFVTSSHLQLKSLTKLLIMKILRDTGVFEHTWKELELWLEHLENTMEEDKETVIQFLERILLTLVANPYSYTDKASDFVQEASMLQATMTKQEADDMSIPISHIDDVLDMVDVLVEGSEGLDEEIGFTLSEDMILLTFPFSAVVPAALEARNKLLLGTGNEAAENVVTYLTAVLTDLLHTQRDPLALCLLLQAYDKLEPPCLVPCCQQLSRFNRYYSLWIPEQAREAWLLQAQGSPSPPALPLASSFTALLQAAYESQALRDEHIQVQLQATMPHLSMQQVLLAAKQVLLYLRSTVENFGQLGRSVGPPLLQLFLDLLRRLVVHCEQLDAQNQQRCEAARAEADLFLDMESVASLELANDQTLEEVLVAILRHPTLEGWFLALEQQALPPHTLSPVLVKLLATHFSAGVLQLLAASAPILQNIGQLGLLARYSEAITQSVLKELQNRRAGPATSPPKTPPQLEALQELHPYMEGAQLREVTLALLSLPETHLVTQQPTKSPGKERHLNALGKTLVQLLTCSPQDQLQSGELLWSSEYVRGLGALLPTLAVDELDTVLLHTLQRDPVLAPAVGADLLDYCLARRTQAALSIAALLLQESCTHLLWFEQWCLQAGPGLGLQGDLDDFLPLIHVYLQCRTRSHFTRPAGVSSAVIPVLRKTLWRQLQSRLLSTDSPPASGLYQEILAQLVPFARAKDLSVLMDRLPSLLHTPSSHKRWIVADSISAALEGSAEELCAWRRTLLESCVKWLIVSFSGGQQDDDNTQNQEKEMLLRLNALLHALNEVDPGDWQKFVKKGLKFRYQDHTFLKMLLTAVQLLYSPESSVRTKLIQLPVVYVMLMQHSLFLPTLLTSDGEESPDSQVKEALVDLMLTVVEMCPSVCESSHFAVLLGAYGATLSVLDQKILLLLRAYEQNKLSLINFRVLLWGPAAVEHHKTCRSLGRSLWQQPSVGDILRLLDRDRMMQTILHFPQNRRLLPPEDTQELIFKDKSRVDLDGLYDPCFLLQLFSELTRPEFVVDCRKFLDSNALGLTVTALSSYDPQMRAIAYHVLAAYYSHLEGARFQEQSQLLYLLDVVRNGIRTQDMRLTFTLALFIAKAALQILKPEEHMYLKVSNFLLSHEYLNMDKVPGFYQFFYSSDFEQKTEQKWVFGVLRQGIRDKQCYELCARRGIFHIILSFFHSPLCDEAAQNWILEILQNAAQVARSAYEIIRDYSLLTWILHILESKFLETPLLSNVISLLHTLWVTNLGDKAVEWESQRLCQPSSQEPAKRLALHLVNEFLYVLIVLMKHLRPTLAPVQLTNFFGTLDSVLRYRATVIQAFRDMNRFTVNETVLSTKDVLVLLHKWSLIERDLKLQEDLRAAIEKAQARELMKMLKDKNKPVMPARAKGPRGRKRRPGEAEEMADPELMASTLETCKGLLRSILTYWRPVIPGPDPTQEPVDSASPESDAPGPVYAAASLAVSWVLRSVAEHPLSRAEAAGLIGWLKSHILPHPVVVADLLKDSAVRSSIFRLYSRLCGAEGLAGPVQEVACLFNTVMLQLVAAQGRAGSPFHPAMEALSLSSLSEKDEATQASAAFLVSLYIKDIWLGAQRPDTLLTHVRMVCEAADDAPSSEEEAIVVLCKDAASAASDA

B1: LZTR1 R810W-FLAG (other, human, UniProt Q8N653 1-840, looked up)
chain: MAGPGSTGGQIGAAALAGGARSKVAPSVDFDHSCSDSVEYLTLNFGPFETVHRWRRLPPCDEFVGARRSKHTVVAYKDAIYVFGGDNGKTMLNDLLRFDVKDCSWCRAFTTGTPPAPRYHHSAVVYGSSMFVFGGYTGDIYSNSNLKNKNDLFEYKFATGQWTEWKIEGRLPVARSAHGATVYSDKLWIFAGYDGNARLNDMWTIGLQDRELTCWEEVAQSGEIPPSCCNFPVAVCRDKMFVFSGQSGAKITNNLFQFEFKDKTWTRIPTEHLLRGSPPPPQRRYGHTMVAFDRHLYVFGGAADNTLPNELHCYDVDFQTWEVVQPSSDSEVGGAEVPERACASEEVPTLTYEERVGFKKSRDVFGLDFGTTSAKQPTQPASELPSGRLFHAAAVISDAMYIFGGTVDNNIRSGEMYRFQFSCYPKCTLHEDYGRLWESRQFCDVEFVLGEKEECVQGHVAIVTARSRWLRRKITQARERLAQKLEQEAAPVPREAPGVAAGGARPPLLHVAIREAEARPFEVLMQFLYTDKIKYPRKGHVEDVLLIMDVYKLALSFQLCRLEQLCRQYIEASVDLQNVLVVCESAARLQLSQLKEHCLNFVVKESHFNQVIMMKEFERLSSPLIVEIVRRKQQPPPRTPLDQPVDIGTSLIQDMKAYLEGAGAEFCDITLLLDGHPRPAHKAILAARSSYFEAMFRSFMPEDGQVNISIGEMVPSRQAFESMLRYIYYGEVNMPPEDSLYLFAAPYYYGFYNNRLQAYCKQNLEMNVTVQNVLQILEAADKTQALDMKRHCLHIIVHQFTKVSKLPTLWSLSQQLLLDIIDSLASHISDKQCAELGADI
notes: Stably expressed in U87 cells by lentivirus; also called LZTR1-FLAG-R810W; LZTR1 RW; not shown: FLAG tag
binds: all assays above
